Each block holds one binder with its values, some of them ahead of it.
What was measured:
[1] = molecular target: T1, human KLB on CHOK1-hKLB cells (human, UniProt Q86Z14 1-1044); experiment: flow cytometry on CHOK1-hKLB cells
T1 construct: whole, on cells; also called human KLB antigen; β-Klotho
T1 sequence (looked up): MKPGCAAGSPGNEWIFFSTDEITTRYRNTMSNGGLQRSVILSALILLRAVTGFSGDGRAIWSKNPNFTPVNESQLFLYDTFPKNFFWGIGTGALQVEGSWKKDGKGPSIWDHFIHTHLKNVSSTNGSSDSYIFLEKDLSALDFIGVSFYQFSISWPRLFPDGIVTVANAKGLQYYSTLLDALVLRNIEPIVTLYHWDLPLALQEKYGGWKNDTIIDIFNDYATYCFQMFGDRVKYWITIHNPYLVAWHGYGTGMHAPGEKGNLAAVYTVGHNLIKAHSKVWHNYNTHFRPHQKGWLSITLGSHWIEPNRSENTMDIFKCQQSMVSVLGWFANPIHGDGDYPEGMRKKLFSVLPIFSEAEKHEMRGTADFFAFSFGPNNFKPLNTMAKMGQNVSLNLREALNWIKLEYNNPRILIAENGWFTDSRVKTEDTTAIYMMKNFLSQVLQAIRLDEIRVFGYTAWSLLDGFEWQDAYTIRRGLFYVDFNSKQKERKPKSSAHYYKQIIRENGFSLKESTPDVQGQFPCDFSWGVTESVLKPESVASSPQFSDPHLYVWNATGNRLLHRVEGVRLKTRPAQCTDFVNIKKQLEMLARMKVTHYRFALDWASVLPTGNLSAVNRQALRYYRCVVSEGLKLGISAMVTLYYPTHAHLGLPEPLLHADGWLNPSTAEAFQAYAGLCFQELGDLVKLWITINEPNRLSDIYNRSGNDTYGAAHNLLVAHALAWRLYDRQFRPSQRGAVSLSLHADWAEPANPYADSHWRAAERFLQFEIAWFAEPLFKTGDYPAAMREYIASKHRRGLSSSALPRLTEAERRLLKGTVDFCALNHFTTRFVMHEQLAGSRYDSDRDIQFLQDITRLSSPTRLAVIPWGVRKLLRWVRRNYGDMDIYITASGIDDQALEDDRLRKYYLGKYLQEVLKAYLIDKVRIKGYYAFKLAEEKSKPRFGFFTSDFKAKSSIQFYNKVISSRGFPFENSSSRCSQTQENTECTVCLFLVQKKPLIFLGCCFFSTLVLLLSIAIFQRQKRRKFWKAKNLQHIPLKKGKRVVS
Description: The above heavy chain variable regions were fused to the heavy chain constant region (set forth in SEQ ID NO: 22) and the light chain variable regions were fused to the light chain constant region (set forth in SEQ ID NO: 23) to construct anti-KLB antibodies, and the binding activity of the obtained antibodies for CHOK1-hKLB was detected (see Test Example 2 of the present disclosure for the experimental method).
The binding ability of the antibodies for CHOK1 cell strains CHOK1-hKLB and CHOK1-cynoKLB overexpressing human KLB and monkey KLB (see Example 1 for specific preparation procedure), respectively, was detected by flow cytometry. The specific procedure was as follows: the above cells were cultured in 10% FBS-containing IMDM medium and incubated in an incubator at 37° C. and 5% CO₂ for 2 days. The cells were then added to a cell plate at 1×10⁵ cells per well, centrifuged at 300 g for 5 min, and then washed once with 1% BSA. The antibody diluted in gradient was added to the cell plate at 100 μL per well, and the mixture was incubated at 4° C. for 1 h and washed once with 1% BSA. The diluted (1:400) APC-goat anti-human IgG Fc fluorescent secondary antibody was added at 100 μL per well, and the resulting mixture was incubated at 4° C. for 1 h. The plate was washed three times with 1% BSA, PBS was added at 100 μL per well, and the plate was read.

[2] = molecular target: human KLB&FGFR1c complex on cells (human, UniProt Q86Z14 1-1044; P11362 22-822); experiment: cell-based or functional assay
human KLB&FGFR1c complex on cells, sequence (P11362 22-822, one chain of several): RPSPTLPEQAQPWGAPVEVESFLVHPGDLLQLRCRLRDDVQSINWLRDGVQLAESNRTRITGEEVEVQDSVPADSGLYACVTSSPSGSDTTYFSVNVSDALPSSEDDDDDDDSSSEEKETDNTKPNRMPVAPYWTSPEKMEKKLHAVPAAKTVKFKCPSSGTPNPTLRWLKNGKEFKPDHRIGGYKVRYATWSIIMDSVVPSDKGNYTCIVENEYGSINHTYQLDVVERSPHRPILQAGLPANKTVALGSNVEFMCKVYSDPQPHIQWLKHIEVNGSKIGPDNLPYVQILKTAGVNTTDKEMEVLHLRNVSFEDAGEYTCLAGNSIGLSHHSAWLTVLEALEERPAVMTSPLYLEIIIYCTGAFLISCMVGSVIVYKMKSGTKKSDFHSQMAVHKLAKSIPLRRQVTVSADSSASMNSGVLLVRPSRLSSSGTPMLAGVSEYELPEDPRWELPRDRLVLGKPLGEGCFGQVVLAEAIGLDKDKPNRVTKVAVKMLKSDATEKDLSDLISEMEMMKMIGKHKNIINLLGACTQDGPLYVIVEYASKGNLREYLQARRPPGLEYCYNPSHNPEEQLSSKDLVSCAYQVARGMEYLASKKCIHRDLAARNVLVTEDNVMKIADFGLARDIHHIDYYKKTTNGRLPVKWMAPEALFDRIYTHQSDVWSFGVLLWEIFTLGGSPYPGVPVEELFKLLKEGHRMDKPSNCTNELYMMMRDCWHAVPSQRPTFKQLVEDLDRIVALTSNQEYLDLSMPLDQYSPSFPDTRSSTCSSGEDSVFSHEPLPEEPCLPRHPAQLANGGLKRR

- EC50 [1]: 2.5 nM
B1: hAb18-8 (antibody, human IgG1, kappa, L234A L235A, V domains shown)
VH: EVQLVQSGAEVKKPGASVKVSCKASGYTFTDYAMHWVRQAPGQRLEWMGVISTYSGTTNYNQNFKGRVTITVDKSASTAYMELSSLRSEDTAVYYCARSGPLDYWGQGTTVTVSS
VL: ENVLTQSPDFQSVTPKEKVTITCRATSSVSSSYLHWYQQKPDQSPKLWIYSTSQLASGVPSRFSGSGSGTDYTLTINSLEAEDAATYYCQQYSGYPLTFGQGTKLEIKR
notes: human IgG1 (L234A, L235A) / kappa

- Activation fold, GAL4-Elk1 luciferase reporter in CHOK1-hKLB&hFGFR1c cells [2]: 14.3 fold
- EC50 (nM), GAL4-Elk1 luciferase reporter in CHOK1-hKLB&hFGFR1c cells [2]: 0.19 nM
- EC50 [1]: 0.32 nM
B2: hAb99-13 (antibody, human IgG1, kappa, L234A L235A, V domains shown)
VH: EVQLVQSGAEVKKPGASVKVSCKASGYTFTNYGINWVRQAPGQRLEWMGYIYIGNVDIEYNAKFKGRVTITSDTSASTAYMELSSLRSEDTAVYYCARGRGLGHFDVWGQGTTVTVSS
VL: DIQMTQSPSSLSASVGDRVTITCRASKSISKFLAWFQQKPGKTNKLLIYSGSTLQSGVPSRFSGSGSGTDFTLTISSLQPEDFATYYCQQHNEYPWTFGGGTKVEIKR
notes: as for B1

Source: US20240270874A1 (JIANGSU HENGRUI PHARMACEUTICALS, published 2024)
